Article PMC8914392, “Biochemical and structural characterizations of thioredoxin reductase selenoproteins of the parasitic filarial nematodes Brugia malayi and Onchocerca volvulus” (Redox Biology, 2022)
Like-named read-outs stand apart in the source and are kept apart here.

Experiments:
[1] = target: T1, BmTrxR (isoform D) (Brugia malayi, UniProt A0A1I9G0T9); test: ThermoFAD; format: binding; settings: 1 mM NADPH; Tm without NADPH 64.5 °C
T1 construct: gene bma-trxr-1; full-length isoform D, 598 residues, Grx-like domain 1-102 and TrxR domain 103-598, Sec at 597; pABC2a, N-terminal His-SUMO tag removed; E. coli C321.deltaA; homodimer
T1 sequence (A0A1I9G0T9 116-713): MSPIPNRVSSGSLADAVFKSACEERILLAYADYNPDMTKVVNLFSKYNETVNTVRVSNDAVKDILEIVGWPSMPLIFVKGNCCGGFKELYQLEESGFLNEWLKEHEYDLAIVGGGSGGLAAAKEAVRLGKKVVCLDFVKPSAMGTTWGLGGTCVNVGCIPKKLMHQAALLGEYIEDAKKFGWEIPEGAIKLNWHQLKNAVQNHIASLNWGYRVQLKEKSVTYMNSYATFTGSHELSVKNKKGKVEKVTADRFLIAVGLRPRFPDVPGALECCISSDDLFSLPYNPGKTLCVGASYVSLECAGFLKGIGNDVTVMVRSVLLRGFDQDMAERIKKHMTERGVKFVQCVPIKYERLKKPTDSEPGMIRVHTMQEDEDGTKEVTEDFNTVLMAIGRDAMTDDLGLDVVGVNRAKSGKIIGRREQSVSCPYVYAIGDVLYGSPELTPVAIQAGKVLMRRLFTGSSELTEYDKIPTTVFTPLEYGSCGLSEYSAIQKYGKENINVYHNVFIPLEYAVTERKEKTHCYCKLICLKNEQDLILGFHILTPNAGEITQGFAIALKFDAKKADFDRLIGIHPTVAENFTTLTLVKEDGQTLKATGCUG

[2] = target: thioredoxin reductase from Brugia malayi, isoform D (Brugia malayi)
[3] = target: thioredoxin reductase from Onchocerca volvulus, isoform D (Onchocerca volvulus)
[4] = tested on: T2, OvTrxR (isoform D); test: DTNB reduction, A412, dose-response fit; format: biochemical, Onchocerca volvulus; settings: 25 nM enzyme, 30 min preincubation with 0.25 mM NADPH and 0.1 mg/ml BSA, 1 mM DTNB, pH 7.5; for IC50: read-out: Apparent IC50 (μM) ^a
T2 construct: gene TrxR; pABC2a, N-terminal His-SUMO tag removed; E. coli C321.deltaA; Sec enriched; homodimer
Text: DTNB reduction, A412, dose-response fit on OvTrxR (isoform D)

[5] = target: T1, BmTrxR (isoform D); test: DTNB reduction, A412, dose-response fit; format: biochemical; settings: for IC50: read-out: Apparent IC50 (μM) ^a
Text: DTNB reduction, A412, dose-response fit on BmTrxR (isoform D)

[6] = tested on: T2, OvTrxR (isoform D); test: TNB formation at A412; format: biochemical, Onchocerca volvulus; settings: 250 μM NADPH, 10 nM enzyme, pH 7.5
Text: TNB formation at A412 on OvTrxR (isoform D)

[7] = target: T3, hTrxR1 (Homo sapiens, UniProt Q16881); test: TNB formation at A412; format: biochemical; settings: NADPH, pH 7.5
T3 construct: gene TXNRD1; recombinant selenoprotein, GCUG C-terminus, cytosolic form; homodimer
T3 sequence (Q16881 151-649): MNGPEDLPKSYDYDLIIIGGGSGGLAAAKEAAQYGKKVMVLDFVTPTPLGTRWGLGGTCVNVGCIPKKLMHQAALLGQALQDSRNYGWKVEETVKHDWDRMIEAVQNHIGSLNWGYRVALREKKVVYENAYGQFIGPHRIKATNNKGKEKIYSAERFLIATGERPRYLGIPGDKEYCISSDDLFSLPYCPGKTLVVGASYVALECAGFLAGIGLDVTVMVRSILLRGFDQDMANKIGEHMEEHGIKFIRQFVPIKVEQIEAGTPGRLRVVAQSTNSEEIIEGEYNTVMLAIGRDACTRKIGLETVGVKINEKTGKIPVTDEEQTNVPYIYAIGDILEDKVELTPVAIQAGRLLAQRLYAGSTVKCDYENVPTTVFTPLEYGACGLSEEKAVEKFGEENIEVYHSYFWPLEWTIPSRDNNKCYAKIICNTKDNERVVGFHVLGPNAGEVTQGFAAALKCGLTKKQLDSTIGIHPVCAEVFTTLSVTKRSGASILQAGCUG
Text: TNB formation at A412 on hTrxR1

[8] = substrate: O=C(O)c1cc(SSc2ccc([N+](=O)[O-])c(C(=O)O)c2)ccc1[N+](=O)[O-]; test: purified protein; settings: 250 μM NADPH, 20 nM enzyme, pH 7.5

NADPH showed a Tm [1] of 48.3 ± 0.6 °C.

“Onchocerca volvulus thioredoxin 1 (natural protein)” gave a Km of the reductase for the Trx, Trx-linked insulin disulfide reduction assay (NADPH consumption at A340) [2] of 1.1 µM and a Km of the reductase for the Trx, Trx-linked insulin disulfide reduction assay (NADPH consumption at A340) [3] of 1.6 µM.

With “Brugia malayi thioredoxin 2 (natural protein)” the Km of the reductase for the Trx, Trx-linked insulin disulfide reduction assay (NADPH consumption at A340) [2] was 4.7 µM.

auranofin showed an IC50 ([4]; covalent) of 0.0032 µM and an IC50 ([5]; 25 nM enzyme, 30 min preincubation with 0.25 mM NADPH and 0.1 mg/ml BSA, 1 mM DTNB, pH 7.5, covalent) of 0.0024 µM.

Work on `O=C(O)c1cc(SSc2ccc([N+](=O)[O-])c(C(=O)O)c2)ccc1[N+](=O)[O-]` [DTNB, 5,5′-dithiobis-(2-nitrobenzoic acid)] yielded a Km [6] of 170 ± 12 µM and a Km [7] of 61 ± 8.4 µM.

“Onchocerca volvulus thioredoxin 2 (natural protein)” gave a Km of the reductase for the Trx, Trx-linked insulin disulfide reduction assay (NADPH consumption at A340) [2] of 9.6 µM and a Km of the reductase for the Trx, Trx-linked insulin disulfide reduction assay (NADPH consumption at A340) [3] of 4.5 µM.

TRi-2 was tested, and the “Apparent IC50 (μM) ^a” value ([4]; unreliable (above the printed inhibitor range 1 nM-1 μM)) was 1.5 µM and the “Apparent IC50 (μM) ^a” value ([5]; 25 nM enzyme, 30 min preincubation with 0.25 mM NADPH and 0.1 mg/ml BSA, 1 mM DTNB, pH 7.5, unreliable (above the printed inhibitor range 1 nM-1 μM)) was 1.8 µM.

`COc1ccc([N+](=O)[O-])c(S(=O)(=O)c2ccc(Cl)cc2)n1` [TRi-1] was tested, and the IC50 [4] was 0.012 µM and the IC50 [5] was 0.013 µM.

For “Brugia malayi thioredoxin 1 (natural protein)”, the Km of the reductase for the Trx, Trx-linked insulin disulfide reduction assay (NADPH consumption at A340) [2] was 2.7 µM and the Km of the reductase for the Trx, Trx-linked insulin disulfide reduction assay (NADPH consumption at A340) [3] was 2.4 µM.

B1: BmTrxR (isoform D) (Brugia malayi) (protein)
chain: T1 sequence (A0A1I9G0T9 116-713)
B1 showed a Km [8] of 70 ± 7.8 µM, a kcat [8] of 20 ± 0.95 s⁻¹ and a kcat/Km [8] of 283000 M⁻¹ s⁻¹.
